Measured values as given in paper PMC9863245, “A Putative New Role of Tv-PSP1 Recognizes IRE and ERE Hairpin Structures from Trichomonas vaginalis”.

What was measured:
[1] = biological target: Tv-PSP1, perchloric-acid-soluble protein (PSP) from Trichomonas vaginalis (Trichomonas vaginalis); test: crystal structure; recombinant Tv-PSP1 20 mg/mL in 25 mM Tris-HCl pH 7.4, 150 mM NaCl, 1 mM DTT; sitting-drop vapor diffusion at 18 °C; space group P63, 1.95 Å; trimers built from the same monomer of different asymmetric units, interfaces analysed with PISA
Tv-PSP1 = biological target: T1, Tv-PSP1 (Trichomonas vaginalis, UniProt A2DAL5 1-124); test: EMSA; 3 mM Mg2+; REMSA: 50 mM Tris-HCl, 75 mM KCl, 3 mM MgCl2, 10 mM DTT, 37 C, 30 min, pH not stated; 100 ug protein, 1 ug RNA; 1.7% agarose; details: protein: recombinant; chain copies: 3; hairpin
T1 sequence: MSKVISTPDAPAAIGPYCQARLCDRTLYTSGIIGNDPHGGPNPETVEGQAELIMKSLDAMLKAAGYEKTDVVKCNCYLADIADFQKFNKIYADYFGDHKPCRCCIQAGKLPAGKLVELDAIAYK

Tv-PSP1, perchloric-acid-soluble protein (PSP) from Trichomonas vaginalis (natural protein)
stoichiometry N [1]: 3

GGGGUUUAGAAUUUCCAAUAA (structured_RNA) [ERE-like (tvcp39 3' UTR)]
binding result (Tv-PSP1): binds
